Measured values published in publication PMC7039410 (Nature, 2019).

What was measured:
[1] = molecular target: histone H2B, in the mononucleosome (X. laevis, UniProt P02281 2-126); assay: cross-linking
AUC = molecular target: the molecule itself; assay: AUC

B1: Swi6 (natural protein)
chain: MKKGGVRSYRRSSTSKRSVIDDDSEPELPSMTKEAIASHKADSGSSDNEVESDHESKSSSKKLKENAKEEEGGEEEEEDEYVVEKVLKHRMARKGGGYEYLLKWEGYDDPSDNTWSSEADCSGCKQLIEAYWNEHGGRPEPSKRKRTARPKKPEAKEPSPKSRKTDEDKHDKDSNEKIEDVNEKTIKFADKSQEEFNENGPPSGQPNGHIESDNESKSPSQKESNESEDIQIAETPSNVTPKKKPSPEVPKLPDNRELTVKQVENYDSWEDLVSSIDTIERKDDGTLEIYLTWKNGAISHHPSTITNKKCPQKMLQFYESHLTFRENE
binding result [1]: binds | stoichiometry N (AUC): 2
